Results: the DeepSol protein solubility set

Experiment: soluble on expression in E. coli; label from the status in PepcDB or PDB records

Row | Sequence | soluble on expression in E. coli
1 | MQEKIYQVAVGLIPGVGAATTKTLISYCGCAEQIFKTPKGKLKNIPGIGAVTVDNIYSASVLHEAESIVERAQKLDTQLLFYTDPDYPNRLKQIPDAPTLLYYKGSSALNPPKSIAIVGTRKATEYGRSVVRKLLEEIASYKPLVVSGLAYGIDIQAHRDALELGLETIGVMANGTNIIYPSVHKNTALKMLEQGGLLSEYTFDSIAEPMRFPARNRIIAGMTDATIVIEATQSGGALITAEIADSYDREVLAVPGRITDMASEGCNNLIKQNKAHALTSAADLIELLNWDITPSQQAHKHIILADLEEDELMIYAVLTDNEGIHIDELSWKSQLSMQKISSVLLEMEFKGIVKALPGKKFSLR | not soluble
2 | MQELKVPSVGESIVEVEIGAWLKGEGESFAQDEPLVELITDKATLELPAPFAGTLKQILKRTGETARVGEAIALLEEGRAEAAPKAQAPAEAPKEPSPEPLAMPAAERLMQEKGVSPAEVQGTGLGGRILKEDVMRHLEERAPAKPQEAPPPPPPSRPAPPPSTPPQPPADKPWRVSEAVPMTPLRRRIAERLLMVRQTTAMLTTFNEADMSAVIALRKEFGEAFQKKYGVKLGFMSFFVKAVVQALKEIPELNAEIRDNHIVYHRYYDIGIAVGGGEGLVVPVIRDADRLSFAEIEQKIADFAERARTKKLKPEELMGGTFTITNGGIYGSLNSTPLLNPPQVGILGMHAIQERPVVRDGQVVIRPMMYLALSYDHRIVDGREAVTFLRRVKELIENPARLLLEV | soluble
3 | MQGEDTIMKTTELKLVYFSPTGTTRRVIMEAARQIDLKSVSFDLSVHKEKKPVLQFDETDFVLFGIPVYSGRVPETFLSYFETLKGNNTPAALIATYGCRAYEDALLELKTEVENRGFHVIGAGAFPTEHSIVRSIGLSRPNKADLKTISEFGIALNRRIKNEDLSALSIQVPGNTPYRKYAKTPLIPKADVSLCTECKACVKSCPAGAISAQDPKKTDKKKCISCLRCVRSCKQKARSVSSMKLSMAAKKLNKVCQSDKAADIFL | not soluble
4 | MQGKLNCEIEMEVQIFTHKNCVECNMLLEYLENKGLLGKVKIIDTELYPFLAFEKGVISTPSIFIDGKLVYAGIVDFEEFERILSGQKVTKQIDKASLVEKLMLGIVDSFAATAWLYINRDFDSFLAQKDFVMAVTGLSLLDEREGDEYYNYLRNVMVKEGDRYLEEWKPRMLRNISSNFIREIFWLYERKISKETLTQKYPVEVFAHWLMIRSGAVGRVGLRIYPLSDSTVMKRVLEAYNFMLENYDEIFNKVQKEQMELKTKNKEQVRYLQL | soluble
5 | MQGLELPQSYFNAAAKRQKYAMKPGLSALEKNAVIKAAYRQIFERDITKAYSQSISYLESQVRNGDISMKEFVRRLAKSPLYRKQFFEPFINSRALELAFRHILGRGPSSREEVQKYFSIVSSGGLPALVDALVDSQEYADYFGEETVPYLRGLEHHHHHH | not soluble
6 | MQIDNISDEQVVIVRMSCYLKKDEIFKNIERYGYQSSDIKKISPPFPLNILPVPKPYYFYLYDTHLNQIYDLAWSCNDFLMFEIFILDRESIKYIDKDKLFKSRETLYSNFKSIKNQCKNYFFCGFDFDAPYFKSGVSQVADYNFVPDAFSLFFI | not soluble
7 | MQKKSIYVAYTGGTIGMQRSEQGYIPVSGHLQRQLALMPEFHRPEMPDFTIHEYTPLMDSSDMTPEDWQHIAEDIKAHYDDYDGFVILHGTDTMAYTASALSFMLENLGKPVIVTGSQIPLAELRSDGQINLLNALYVAANYPINEVTLFFNNRLYRGNRTTKAHADGFDAFASPNLPPLLEAGIHIRRLNTPPAPHGEGELIVHPITPQPIGVVTIYPGISADVVRNFLRQPVKALILRSYGVGNAPQNKAFLQELQEASDRGIVVVNLTQCMSGKVNMGGYATGNALAHAGVIGGADMTVEATLTKLHYLLSQELDTETIRKAMSQNLRGELTPDD | soluble
8 | MQKNNNKLTMSARFGEWYKEATENCAERELYATSLIARMDWVVDPISSKSYRYDLTTDLNKNHSSAWYDVATEICNKRKETVIRAILEDNIKIENF | soluble
9 | MQKRDGHIHTPFCPHGSNDTLRQYAEEALKKGFESITFTEHAPLPPSFTDPTPLKDSAMAQASLERYIHEISGLKKEYRGQLSIRTGLEVDYIAEFEDEITLFLDTYGPYLDDSILSVHFLRTDSSYLCLDYDEHTFKELISACGSIEAVYEQYYRSIYSSIVASLGVYKPKRVGHITLVQKFIKLFPYSMSEHIRGLVSLCLNAIEENGMELDFNTSGLRKTYAGGIYIEDWMLNEAKQKKIPLVFGSDAHQAGDVGYAYEAFLERCLEHHHHHH | not soluble
10 | MQKSDEVTEKFKRYCNQLEKYGQTENVHSPVMAMLRRKGRKQLIEIMKRDGDCTSSINKLWIVGYYHPFQFFIRDKEKNMAIAVLLTMFCGELQEMLSLPDDKYPALWNMYIGDFHRYMPDEEIQKCLAVGYYSRAIDLDPNQGRAFHVLAGLRADLNVAQKLRLMILGQLADAPYKKGTELLEYLKFPQKESTDKLMVDFVIWALNEKSKRMDYQMTGIKIVNEFKAEIEQKLEFDWSLIMSTCRLASKLAMKKFGFQQFYNCFDTISTLYITIYSRTISSKCLLAEAISWISDSAEILGHLDEQKNEPHFQKLSVFAKTKWNELNDLVMNHINSVFTSMSLTINPSISMTSFLLNGPISEPNVEFLSQLINYLVSVEFPPMEIIHDREESGPLLRRINQSEQKRLDIQIKTQNDEVNREDWRPVYVLMDYDVIVDKIRIALKIWDIDDFICILPSTVLDELDYQKTKNRAVRPVIRALMELQAEGKIVLKKCDNERSCAEQLVQSARRSAEDHKHIVAFLCKNPSEQKEMEGVTFYDIDQFYMKYLE | not soluble
11 | MQKVHVQYIDGETDQMLRQDDLDGYTDETIPYSTAEGIKKFEGDGYELFKDNFPAGEKFDNDDTNDQFYTVIFKHHRENVDPNHSSADGTKGTKTLTETVHYKYANGTKAAEDQTAQVTFTRNGVLDDVTGIVAWGKWNEASQSYKALTSPTIAGYAPSEAVVKRSSNSDAEQGPTLTVIYTADA | soluble
12 | MQLDIDGLKVLFPYDYVYPEQVLYMKEVKKALDARGHGLLEMPSGTGKTVSLLSLVLAYMISYPDKLDKLVYCSRTIPEIEKCVEEMKVLYDYWEKETGQPVAKITVAMSARKNLCVNEPVAALRFGNTVDSACQKLTASSARQKRAEDPTLEACDYFENFEAKSVPMQNGVWNLVKICEFWGTDKIEIFREKIQEI | not soluble
13 | MQLSTLTALSPLDGRYQDKVTPLRAIFSEFGLMKFRVAVEVRWLQKLASTADITEVPPFSTQANAFLDGIVANFNEADAARIKEIERTTNHDVKAVEYFLKEKIQNEVELVKVSEFIHFACTSEDINNLSHALMLSTARDEVILPEWQKLIDEITRLAEEYKTIPLLSRTHGQPASPSTVGKEMANVVYRLKRQFKQLQNAEILGKINGAVGNYNAHLSAYPNIDWHKFSEEFVTSLGIQWNPYTTQIEPHDYITEFFDAVVRFNTIIIDFDRDLWGYIALNHFKQRTIAGEIGSSTMPHKVNPIDFENSEGNLGLANAVMTHLGQKLPISRWQRDLTDSTVLRNLGVGLGYCLIAYASTRKGISKLEVNQPHLLEELNQNWEVLAEPIQTVMRRYGIEKPYEKLKELTRGKRVTEQAMREFIDKLDIPQEEKLRLQKLTPATYIGAAVELVEKLS | not soluble
14 | MQNHVISLASAAERRAHIAATFGARGIPFQFFDALMPSERLEQAMAELVPGLSAHPYLSGVEKACFMSHAVLWKQALDEGLPYIAVFEDDVLLGEGAEKFLAEDAWLKERFDPDSAFIVRLETMFMHVLTSPSGVADYCGRAFPLLESEHWGTAGYIISKKAIRFFLQHFVMLQPEQIKPIDLMMFSDFFDKEGMPVYQVSPALCAQELHYAKFHDQNSALGSLIEHDRLLNRKQQRRDSPANTFKRRLIRALTKISLEHHHHHH | soluble
15 | MQNHVISLASAAERRAHIAATFGSRGIPFQFFDALMPSERLEQAMAELVPGLSAHPYLSGVEKACFMSHAVLWKQALDEGLPYIAVFEDDVLLGKDAEKFLAEDTWLEERFDKDSAFIVRLETMFAKVIVRPDKVLNYENRSFPLLESEHCGTAGYIISREAMRFFLDRFAVLPPERIKAVDLMMFTYFFDKEGMPVYQVSPALCTQELHYAKFLSQNSMLGSDLEKDREQGRRHRRSLKVMFDLKRALGKFGREKKKRMERQRQAELEKVYGRRVILFKLEHHHHHH | soluble
